Experimental findings from patent US20200109202A1 (published 2020) are described below.

In test [1] the target is T1, CD16A (FcγRIIIA) on primary human NK cells (human, UniProt P08637 17-254).
T1 construct: whole, on cells
Put plainly: flow cytometry, DyLight650-labelled antibody on fresh human NK cells (FIG. 40A). In general terms: A flow cytometer gives signals particle by particle.
Experimental: Fresh prepared human NK cells were pre-incubated for 1-hours at 37 C with and without 10 mg/mL of SCIG (Hizentra), then stained with DyLight650 labeled anti-AFM26/CD16a at indicted concentrations. […] NK (FIG. 40D) and MM.1S cells (FIG. 40C) were preincubated separately in 50% human autologous serum for 2 hours prior to assay setup. NK cells were co-cultured with MM.1S tumor cell line at an approximate E:T ration of 5, and exposed to 10-fold serial diluted test articles from 0.1-100 nM for approximately 20 hours at 37 C with 5% CO₂. Antibody staining with CD138 and CD56 followed by FACS were used to monitor cytotoxicity of MM.1S target cells and NK survival. Data were analyzed with the software programs FlowJo and GraphPad Prism 6.

Test [2] has as its target T2, human CD16A-158V ECD fused to monomeric Fc (human, UniProt P08637 17-208).
T2 construct: extracellular domain; also called CD16A-158V ECD-monomeric Fc-fusion antigen; CD16A-158V ECD-Fc fusion antigen; not shown: monomeric Fc (Ying et al. 2012), silent; Avi-tag in the SPR form
Briefly: SPR, Biacore T200, receptor captured, 1:1 model.

In test [3] the target is T2, human CD16A-158V ECD fused to monomeric …. Put plainly: ELISA, CD16 antigen coated at 0.5 µg/mL (10 nM), with 8-10 nM 3G8 IgG as competitor.
For test [4] the target is unchanged. Briefly: ELISA, CD16 antigen coated at 0.5 µg/mL (10 nM), without competition.
In test [5] the target is T1, CD16A (FcγRIIIA) on primary human NK …. Briefly: flow cytometry, primary human NK cells, 37 C, with 10 mg/mL polyclonal human IgG as competitor.
The target is the same in test [6]. Briefly: flow cytometry, primary human NK cells, 37 C, buffer.
The target of test [7] is T3, human CD16A-158F ECD fused to monomeric Fc (human, UniProt P08637 17-208, biotinylated on the Avi-tag in the SPR form).
T3 construct: extracellular domain; not shown: monomeric Fc (Ying et al. 2012), silent; Avi-tag in the SPR form
T3 sequence (P08637 17-208): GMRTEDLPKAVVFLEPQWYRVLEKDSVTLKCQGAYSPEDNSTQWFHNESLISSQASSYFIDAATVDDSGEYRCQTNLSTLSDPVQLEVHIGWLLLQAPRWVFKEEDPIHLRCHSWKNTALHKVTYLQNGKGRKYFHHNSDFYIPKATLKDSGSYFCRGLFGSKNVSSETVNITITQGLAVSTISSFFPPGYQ
Put plainly: ELISA, antigen coated at 1.5 µg/mL, His-tagged scFv titrated. (ELISA stands for enzyme-linked immunosorbent assay.)

In test [8] the target is T4, Cynomolgus CD16A ECD fused to monomeric Fc (cynomolgus, UniProt Q8SPW2 17-208, biotinylated on the Avi-tag in the SPR form).
T4 construct: also called biotinylated mono-Fc(silent)-Avi-tagged cynomolgus CD16; not shown: monomeric Fc fusion partner (Avi-tag in the SPR form)
T4 sequence (Q8SPW2 17-208): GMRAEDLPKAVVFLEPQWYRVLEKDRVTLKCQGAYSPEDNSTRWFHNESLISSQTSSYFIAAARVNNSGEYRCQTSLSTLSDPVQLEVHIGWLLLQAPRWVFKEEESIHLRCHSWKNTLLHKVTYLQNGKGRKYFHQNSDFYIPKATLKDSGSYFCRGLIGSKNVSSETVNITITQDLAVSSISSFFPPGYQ
The description is as above.

The target of test [9] is T2, human CD16A-158V ECD fused to monomeric …. Described as above.
Test [10] deals with T5, biotinylated, recombinant human CD16A(48R-158V) fused to human IgG1 Fc portion (human, UniProt P08637 17-208, biotinylated (site not stated)).
T5 construct: also called CD16A soluble antigen; recombinant human CD16A soluble antigen; not shown: human IgG1 Fc portion
T5 sequence (P08637 17-208 L66R/F176V limits assumed): as the sequence (P08637 17-208) above, with L50R, F160V counted along it
Put plainly: ELISA, coated construct, soluble CD16A(48R-158V)-Fc.

A word on the Kd: it is a measure of binding affinity in units of concentration. Read a high Kd as weaker binding. What is called EC50 is the midpoint of the concentration-response curve.

T2 sequence (P08637 17-208 F176V): as the sequence (P08637 17-208) above, with F160V counted along it
T1 sequence (P08637 17-254): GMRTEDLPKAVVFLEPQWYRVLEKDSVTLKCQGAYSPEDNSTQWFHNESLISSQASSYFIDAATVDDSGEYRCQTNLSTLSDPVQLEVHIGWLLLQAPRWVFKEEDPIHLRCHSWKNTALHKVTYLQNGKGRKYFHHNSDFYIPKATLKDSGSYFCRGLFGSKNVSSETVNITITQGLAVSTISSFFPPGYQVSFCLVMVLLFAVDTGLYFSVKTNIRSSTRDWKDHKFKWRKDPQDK

B1: CD16A/BCMA antibody I (bispecific antibody, human IgG1, kappa)
heavy: EVQLLESGGGLVQPGGSLRLSCAASGFTFSNYDMAWVRQAPGKGLEWVSSISTRGDITSYRDSVKGRFTISRDNSKNTLYLQMNSLRAEDTAVYYCARQDYYTDYMGFAYWGQGTLVTVSSASTKGPSVFPLAPSSKSTSGGTAALGCLVKDYFPEPVTVSWNSGALTSGVHTFPAVLQSSGLYSLSSVVTVPSSSLGTQTYICNVNHKPSNTKVDKKVEPKSCDKTHTCPPCPAPEFEGGPSVFLFPPKPKDTLMISRTPEVTCVVVAVSHEDPEVKFNWYVDGVEVHNAKTKPREEQYNSTYRVVSVLTVLHQDWLNGKEYKCKVSNKALPAPIEKTISKAKGQPREPQVYTLPPSREEMTKNQVSLTCLVKGFYPSDIAVEWESNGQPENNYKTTPPVLDSDGSFFLYSKLTVDKSRWQQGNVFSCSVMHEALHNHYTQKSLSLSPGGGGGSGGGGSGGGGSGGGGSGGGGSGGGGSSYVLTQPSSVSVAPGQTATISCGGHNIGSKNVHWYQQRPGQSPVLVIYQDNKRPSGIPERFSGSNSGNTATLTISGTQAMDEADYYCQVWDNYSVLFGGGTKLTVLGGSGGSGGSGGSGGSGGSGGSQVQLVQSGAEVKKPGESLKVSCKASGYTFTSYYMHWVRQAPGQGLEWMGAIEPMYGSTSYAQKFQGRVTMTRDTSTSTVYMELSSLRSEDTAVYYCARGSAYYYDFADYWGQGTLVTVSS
light: AIQMTQSPSSLSASVGDRVTITCRASEDIYNGLAWYQQKPGKAPKLLIYGASSLQDGVPSRFSGSGSGTEFTLTISSLQPEDEATYYCAGPHKYPLTFGGGTKVEIKRTVAAPSVFIFPPSDEQLKSGTASVVCLLNNFYPREAKVQWKVDNALQSGNSQESVTEQDSKDSTYSLSSTLTLSKADYEKHKVYACEVTHQGLSSPVTKSFNRGEC
notes: also called BCMA/CD16A antibody I; anti-BCMA/CD16a
Regarding B1, the binding result in [1] is “binds”.

B2: scFv 3G8 (scFv containing the variable domains of the CD16 pan-specific antibody 3G8) (scFv)
chain 1: QVTLKESGPGILQPSQTLSLTCSFSGFSLRTSGMGVGWIRQPSGKGLEWLAHIWWDDDKRYNPALKSRLTISKDTSSNQVFLKIASVDTADTATYYCAQINPAWFAYWGQGTLVTVS
chain 2: DIVLTQSPASLAVSLGQRATISCKASQSVDFDGDSFMNWYQQKPGQPPKLLIYTTSNLESGIPARFSASGSGTDFTLNIHPVEEEDTATYYCQQSNEDPYTFGGGTKLELK
Turning to B2, the figures for the dissociation constant Kd in test [2], in test [5] and in [6] were 8.6 nM, 64.6 nM and 3.8 nM, respectively. Moreover, the EC50 in test [3] is 19.7 nM; in test [4], 0.9 nM; in [7] it was 0.58 nM; in [8], 0.87 nM; in [9] it was 0.33 nM.

B3: scDb-Tribody_01 (other)
VL: SYVLTQPSSVSVAPGQTATISCGGHNIGSKNVHWYQQRPGQSPVLVIYQDNKRPSGIPERFSGSNSGNTATLTISGTQAMDEADYYCQVWDNYSVLFGGGTKLTVL
VH: QVQLVQSGAEVKKPGESLKVSCKASGYTFTSYYMHWVRQAPGQGLEWMGIINPSGGSTSYAQKFQGRVTMTRDTSTSTVYMELSSLRSEDTAVYYCARGSAYYYDFADYWGQGTLVTVSS
notes: Trispecific; LSIV21 scDb VL-VL-VH-VH; connector1 NO:20, no hinge, no Fc, connector2 NO:20
B3: the 50% effective concentration (EC50) in test [10] amounted to 0.65 nM.
